B1: D-7: conventional-sequence DNA nanoparticle without target head, strands SEQ ID NO: 117-119 (nucleic acid)
chain 1: dC*dG*dC*dGdCdGdCdCdCdAdCdGdAdGdCdGdTdTdGdCdGdGdGdCdGdC*dC*dG*dC
chain 2: dG*dC*dG*dGdCdGdCdCdCdGdCdTdTdCdGdGdCdGdGdCdAdGdGdC*dG*dG*dC
chain 3: dG*dC*dC*dGdCdCdAdGdCdCdGdCdCdCdAdTdAdGdCdCdGdTdGdGdGdCdGdC*dG*dC*dG
modifications: three-strand DNA nanoparticle
B2: R-13: conventional-sequence RNA nanoparticle, strands SEQ ID NO: 91-93, C/U 2′F modified (nucleic acid)
chain 1: CGCGCGCCCAGCAGCGUUCGGGGCGCCGC
chain 2: GCGGCGCCCCGUUCGGCCGGCAGGCGGC
chain 3: GCCGCCAGCCGGCCCAUAGCGCUGGGCGCGCG
modifications: 2'-fluoro at CU, RNA at AG, backbone not given here; Strands self-assemble into an RNA nanoparticle carrier
B3: R-8: conventional-sequence RNA nanoparticle with extension fragments, strands SEQ ID NO: 76-78, C/U 2′F modified (nucleic acid)
chain 1: CGCGCGCCCAGGAGCGUUGGCGGGCGGCG
chain 2: CGCCGCCCGCCUUCGCCGCCAGCCGCC
chain 3: GGCGGCAGGCGGCCAUAGCCCUGGGCGCGCG
modifications: 2'-fluoro at CU, RNA at AG, backbone not given here; three-strand RNA nanoparticle used as drug carrier
B4: R-10: conventional-sequence RNA nanoparticle, strands SEQ ID NO: 82-84, C/U 2′F modified (nucleic acid)
chain 1: CGCGCGCCCACGAGCGUUGCGGGGCGGCG
chain 2: CGCCGCCCCGCUUCGCCGCCAGCCGCC
chain 3: B3 chain 3 with C21G
modifications: 2'-fluoro at CU, RNA at AG, backbone not given here; three-strand RNA nanoparticle used as drug carrier
B5: R-11: conventional-sequence RNA nanoparticle, strands SEQ ID NO: 85-87, C/U 2′F modified (nucleic acid)
chain 1: CGCGCGCCCAGGAGCGUUGGCCCGCGGCG
chain 2: CGCCGCGGGCCUUCGGGGCCAGCCGCC
chain 3: B3 chain 3 with G11C, G12C
modifications: 2'-fluoro at CU, RNA at AG, backbone not given here; three-strand RNA nanoparticle used as drug carrier
B6: R-9: conventional-sequence RNA nanoparticle, strands SEQ ID NO: 79-81, C/U 2′F modified (nucleic acid)
chain 1: CGCGCGCCCAGCAGCGUUCGCGGGCGGCG
chain 2: CGCCGCCCGCGUUCGCCGCCAGCCGCC
chain 3: B3 chain 3 with C20G
modifications: 2'-fluoro at CU, RNA at AG, backbone not given here; three-strand RNA nanoparticle used as drug carrier
B7: D-6: conventional-sequence DNA nanoparticle without target head, strands SEQ ID NO: 114-116 (nucleic acid)
chain 1: dC*dG*dC*dGdCdGdCdCdCdAdGdCdAdGdCdGdTdTdCdGdGdGdGdCdGdC*dC*dG*dC
chain 2: dG*dC*dG*dGdCdGdCdCdCdCdGdTdTdCdGdGdCdCdGdGdCdAdGdGdC*dG*dG*dC
chain 3: dG*dC*dC*dGdCdCdAdGdCdCdGdGdCdCdCdAdTdAdGdCdGdCdTdGdGdGdCdGdC*dG*dC*dG
modifications: three-strand DNA nanoparticle
B8: R-12: conventional-sequence RNA nanoparticle, strands SEQ ID NO: 88-90, C/U 2′F modified (nucleic acid)
chain 1: CGCGCGCCCAGCAGCGUUCGCCCCGCCGC
chain 2: GCGGCGGGGCGUUCGGCGGCAGGCGGC
chain 3: GCCGCCAGCCGCCCAUAGCGCUGGGCGCGCG
modifications: 2'-fluoro at CU, RNA at AG, backbone not given here; three-strand RNA nanoparticle used as drug carrier
B9: D-2: conventional-sequence DNA nanoparticle with EGFRapt target head, strands SEQ ID NO: 102-104 (nucleic acid)
chain 1: dC*dG*dC*dGdCdGdCdCdCdAdGdCdAdGdCdGdTdTdCdGdCdGdGdGdCdGdGdCdGdGdCdCdTdTdAdGdTdAdAdCdGdTdGdCdTdTdTdGdAdTdGdTdCdGdAdTdTdCdGdAdCdAdGdGdA*dG*dG*dC
chain 2: dC*dG*dC*dCdGdCdCdCdGdCdGdTdTdCdGdCdCdGdCdCdAdGdCdC*dG*dC*dC
chain 3: dG*dG*dC*dGdGdCdAdGdGdCdGdGdCdCdAdTdAdGdCdGdCdTdGdGdGdCdGdC*dG*dC*dG
modifications: three-strand DNA nanoparticle with an EGFR aptamer part
B10: R-14: conventional-sequence RNA nanoparticle carrying survivin siRNA, strands SEQ ID NO: 94-96, C/U 2′F modified (nucleic acid)
chain 1: CGCGCGCGAGCGUUGCAAUGACAGAUAAGGAACCUGCUTT
chain 2: GGCAGGUUCCUUAUCUGUCAAAGCUUCGGCGGCAGC
chain 3: GCAGCCGCCCAUAGCCGCGCGCG
modifications: chain 1: DNA at T, 2'-fluoro at CU, RNA at AG, backbone not given here; chain 2: 2'-fluoro at CU, RNA at AG, backbone not given here; chain 3: 2'-fluoro at CU, RNA at AG, backbone not given here; three-strand RNA nanoparticle carrying a survivin siRNA fragment

The values below come from patent US20220226473A1, “Nucleic acid nanocarrier drug and preparation method thereof, pharmaceutical composition and application thereof” (BAI YAO ZHI DA (BEIJING) NANOBIO TECHNOLOGY CO., LTD., priority 2018, published 2022).

Where a chain is given by its changes, count along the chain named. “And” between values parts separate entries of the source, which are not always exact repeats. Equal entries are not always repeated. Oligonucleotides are written 5' to 3', each unit as a sugar letter and its base; * is a phosphorothioate linkage, no mark a phosphodiester; rarer units and linkages stand in square brackets, end groups in braces. Plain capitals give the bases only. d = 2'-deoxy (DNA)

One data set can be described thus: Particle size measurement (DLS hydrodynamic size). Type of data set: physicochemical. The following applies: result over 3 detections, DLS. The text has this: 1. Preparing a potential sample (conventional-sequence DNA self-assembly product D-7) and putting into a sample pool, opening a sample pool cover of an instrument, and placing the instrument;
2. opening software, and clicking a menu, so a manual measurement parameter setting dialog box appears;
3. setting a software detection parameter; and then
4. clicking Ok to complete the settings, when a measurement dialog box appears, clicking Start to start, a DLS measurement value result of a hydrodynamic size of the self-assembly product D-7 is shown below in Table 40: […]
For B1, the “Particle size Z-Ave, Experiment result” value is 12.33 d.nm (±1.57 d.nm).

The data set is the same for the next values; noted with them: single detection (detection times 1-3), DLS.
In the case of B1, the “Particle size Z-Ave” value is 10.76 nm·days and 13.9 nm·days and 10.36 nm·days.

A short description of another data set: Electric potential (zeta potential) measurement of self-assembly products. Type of data set: physicochemical. Particulars: result over 3 detections, sample in ultrapure water. On the procedure: Measurement method: preparing a potential sample (the self-assembly product is dissolved in ultrapure water) and putting into a sample pool, opening a sample pool cover of an instrument, and placing the instrument;
opening software, clicking a menu MeasUre€ManUal, so a manual measurement parameter setting dialog box appears;
setting a software detection parameter;
and then clicking Ok to complete the settings, after a measurement dialog box appears, clicking start to start.
and then clicking Ok to complete the settings, after a measurement dialog box appears, clicking Start to start.
Measurement method: preparing a potential sample (the self-assembly product is dissolved in ultrapure water) and putting into a sample pool, opening a sample pool cover of an instrument, and placing the instrument:
Measurement result potential detection results of the 7 groups of the extension fragment deformation+core short-sequence RNA nanoparticles at 25 DEG C. are as follows:
setting a software detection parameter; and then
clicking Ok to complete the settings, after a measurement dialog box appears, clicking Start to start.
Measurement result potential detection results of the 7 groups of the extension fragment deformation+core short-sequence DNA nanoparticles at 25 DEG C. are as follows: […]
Turning to B2, the “Potential ZP, Experiment result” value is listed as −15.45 mV (±5.81 mV). Same read-out and setting: then B3, with −17.43 mV (±1.33 mV).

As for B4, the “Potential ZP, Experiment result” value is given as −10.87 mV (±0.47 mV). Same read-out and setting: the same measure for B5: −29.13 mV (±3.13 mV); for B6: −18.20 mV (±1.3 mV); for B7: −31.90 mV (±0.2 mV). Consider B8, for which the “Potential ZP, Experiment result” value is recorded as −10.86 mV (±3.27 mV). On the same count and under the same terms, the same measure for B1: −32.20 mV (±0.0.5 mV); for B9: −36.47 mV (±0.67 mV). Regarding B10, the “Potential ZP, Experiment result” value is listed as −23.53 mV. ± 2.33 mV.
